Data published in patent US5614192A, “T cell receptor peptides as therapeutics for immune-related disease” (Connective Therapeutics, Inc., priority 1993, dated 1997).
Several values for one entry are separate records, joined by “and”; a condition that tells them apart may be missing. Equal entries are not always repeated. Where two headings read alike, the source gives them in different places. Ends that are not written are not given here.

Legend:
clone C455-69 = assay: Proliferation response of clone C455-69 to BP peptides (Table 28); assay type: cell-based, rat
Procedure: Proliferation assays: Proliferation assays were performed in 96-well microtiter plates. 2×10^4 T cells and 10^6 irradiated thymocytes/well were incubated with stimulation medium only, ConA, or antigen at 37C in 7% CO2. The cultures were incubated for 72 h, the last 18 h in the presence of 0.5 Bq ^3 H-Tdr. The cells were harvested onto glass fiber filters and TCR uptake was assessed by liquid scintillation. Mean CPM wre calculated from triplicate wells. The standard deviation from replicate wells varied <10% from the mean values.
the homologous RtBP sequence. Five μg/ml ConA or 50 μg/ml of each

[1] = test system: T cell lines derived from rats protected from EAE; assay: Proliferation of LN cells and T cell lines from rats protected by TCR Vβ8 peptide (Table 12); assay type: cell-based, rat
[2] = test system: LN cells and T cell lines; assay: Proliferation of LN cells and lines from rats protected by transfer of TCR Vβ8 peptide-specific T cells (Table 15); assay type: cell-based, rat
Procedure: ^1 Lymph node (LN) cells were collected 20 days after simultaneous
^2 LN cells were tested directly (NL column).
^3 T cell lines were selected from these LN cells by culture with TCR

popliteal LN cells = assay: Proliferation of LN cells after EAE induction and TCR peptide treatment (Table 23); assay type: cell-based, Lewis rats
Procedure: The proliferative responses and specificity of T cells in the draining LN (popliteal) of rats treated with TCR Vβ8(39-59) peptide for EAE on day 13 after disease induction were examined (Table 23). On day 0, Lewis rats received an EAE-inducing regimen of GP-BP+CFA SC into their hind footpads. […] On day 20, about 7 days after onset of EAE, popliteal LNs were removed and T cell proliferative activity in response to the indicated antigens or mitogens were tested directly.
Results are shown as net ^3 Hthymidine incorporation of 5 ×

peptide-selected T cells = assay: Proliferation of peptide-selected T cells after in vivo TCR peptide treatment (Table 24); assay type: cell-based, Lewis rats
Text: LN cells from control rats responded best to Con A, PPD, GPBP and GPBP (72-89), and GPBP (45-89) (which includes the 72-89 sequence and another immunogenic but non-encephalitogenic peptide). […] LN cells from rats treated ID with the TCR peptide esponded similarly to the control cells, with the exception of a reduced response to GPBP (72-89). […] An aliquot of each of the above 3 groups of LN cells was stimulated in culture with either GPBP or with the TCR peptide for 3 days, and the cells expanded in IL-2 for 5 more days. The proliferative responses to the various antigens and mitogens of these selected T cells were examined, as above.

[3] = test system: lymph node cells and Vβ8-44-54 selected T cell line
EAE [4] = assay: Prevention and suppression of EAE by immunization with TCR Vβ8(39-59) (Table 17); assay type: in vivo, Lewis rats; conditions: antigen alone, day 0 (no TCR peptide)
EAE [5] = assay: Prevention, suppression and treatment of EAE with TCR Vβ8-39-59 peptide (Table 25); assay type: in vivo, Lewis rats; conditions: GP-BP/CFA only
DTH response = assay: Delayed hypersensitivity responses to TCR peptides, ear swelling (Table 26); assay type: in vivo, Lewis rats
LNC and T cell lines = assay: T cell proliferation after treatment of EAE with TCR Vβ8 39-59/CFA (Table 27); assay type: cell-based, rats
Procedure: Lymphocyte Proliferation: Activation of T cells was measured by ^3 H-Tdy uptake. 500,000 lymph node cells or 20,000 line cells in the presence of 1 million irradiated thymic accessory cells were incubated with culture medium and antigens in microtiter wells for 18 hours prior to the addition of 0.5 μBq labeled thymidine. The cell cultures were harvested onto glass fiber filters and counted by liquid scintillation techniques. Mean CPM were calculated from triplicate cultures. Standard deviations (SD) from replicate cultures varied <10% from the mean value.
^a Treated rats were injected s.q. with 50 μg TCR Vβ839-59
^b LW cells collected after the untreated group recovered from EAE

[6] = test system: clones C372-89 and C455-69; assay: Coculture of clones C372-89 and C455-69, proliferation (Table 31); assay type: cell-based, rat
Procedure: 50 μg of antigen was added to 10,000 cells of each clone stimulated in […]

[7] = 50 μg/ml peptide (5 μg/ml ConA), 20,000 clone C455-69 cells, 3 days
[8] = 1st value column (head not given; LN cells of protected rats)
[9] = 2nd value column (head not given, TCR Vβ8(39-59)-selected line)
[10] = 4th value column (head not given; mixed TCR- and BP-specific T cells)
[11] = A. TCR Vβ8 peptide-specific T cell transfer
[12] = Treated rats (TCR Vβ8 39-59/CFA at onset), LNC
[13] = Untreated rats (GPBP/CFA only), LNC
[14] = 50 μg antigen, 10,000 cells, 3 days

With “APKRGSGKDSH HAARTTH (APKRGSGKDSHHAARTTH) [43-67, Gp-BP fragment 43-67 (printed from residue 50)]” as the molecule, how does the “Response CPM/1000 ± S.D.” value (clone C455-69; [7]) read?
Its value is 249 ± 12 CPM/1000.

Which “Response CPM/1000 ± S.D.” value (clone C455-69; [7]) does the source give for “APKRGSGKDSH HAARTTHYG (APKRGSGKDSHHAARTTHYG) [50-69]” here?
The value was 277 ± 14 CPM/1000.

Which “T Cell Proliferation” value [1] does the source give for “Concanavalin A [Con A, reference compound]” here?
The value was 99 and 96 and 80 and 123.

And the “Proliferation, TCR Peptide Selected Line” value [2]?
The value was 46.

What about the “T Cell Proliferation” value (popliteal LN cells) of the same molecule?
Its value is 85 and 78 and 146.

What about the Proliferative response (peptide-selected T cells) of the same molecule?
The Proliferative response was 76 and 52 and 68 and 95.

And the “Response CPM/1000 ± S.D.” value (clone C455-69)?
The value was 229 ± 15.

What about the “Response of Lymph Node Cells” value [3] of the same molecule?
Its value is 293 ± 39.

And the “Response of T Cell Line, percent (in parentheses)” value [3]?
Its value is 88% and 93% and 106%.

For LRLIHYSYDVN [Vβ8-44-54, LRLIHYSYDVN], which “inhibition of T cell response” value ([3]; 72 h) is on record?
The value was 76%.

With SGKDSH HATRTTHYGSLPQK [55-74 modified] as the molecule, how does the “Response CPM/1000 ± S.D.” value (clone C455-69; [7]) read?
Its value is 150 ± 15 CPM/1000.

B1: GPBP: guinea pig basic protein, encephalitogen (protein, UniProt P25188 1-167, looked up)
Myelin basic protein: ASQKRPSQRHGSKYLATASTMDHARHGFLPRHRDTGILDSIGRFFGSDRAAPKRGSGKDSHHAARTTHYGSLPQKSQRSQDENPVVHFFKNIVTPRTPPPSQGKGRGLSLSRFSWGAEGQKPGFGYGGRADYKSKGFKGAHDAQGTLSKIFKLGGRDSRSGSPMARR
Which “T Cell Proliferation” value [1, 8] does the source give for B1 here?
Its value is 16 cpm × 10^-3.

And the “T Cell Proliferation” value [1, 9]?
Its value is 3 cpm × 10^-3.

And the “T Cell Proliferation” value [1, 10]?
Its value is 102 cpm × 10^-3.

And the “T Cell Proliferation” value ([1]; GPBP-selected line)?
The value was 93 cpm × 10^-3.

And the “Proliferation, GPBP Selected Line” value [2, 11]?
Its value is 16 cpm × 10^-3.

And the “Proliferation, TCR Peptide Selected Line” value [2, 11]?
The value was 0 cpm × 10^-3.

And the “Proliferation, LN” value ([2]; A. rats given 3 × 10^7 TCR Vβ8 peptide-specific T cells + GPBP/CFA, LN cells day 20)?
Its value is 80 cpm × 10^-3.

And the “Proliferation, GPBP Selected Line” value ([2]; B. Saline + GPBP/CFA)?
The value was 65 cpm × 10^-3.

And the “Proliferation, LN” value ([2]; B. Saline + GPBP/CFA)?
The value was 32 cpm × 10^-3.

And the “Clinical Score” value (EAE [4])?
Its value is 3.1 ± 0.6.

What about the “T Cell Proliferation” value (popliteal LN cells; LN cells day 20 of Control rats (saline day 13)) of the same molecule?
Its value is 49 cpm × 10^-3.

And the “T Cell Proliferation” value (popliteal LN cells; LN cells of rats given TCR Vβ 8(39-59) 50 μg ID day 13)?
Its value is 44 cpm × 10^-3.

And the “T Cell Proliferation” value (popliteal LN cells; LN cells of rats given TCR Vβ 8(39-59) 100 μg SC (in CFA) day 13)?
The value was 50 cpm × 10^-3.

And the Duration (EAE [5])?
The Duration was 6.6 ± 0.9 days.

What about the EAE/TOTAL (EAE [5]) of the same molecule?
Its EAE/TOTAL is 26/26.

What about the “Max Clin. Signs” value (EAE [5]) of the same molecule?
The value was 3.4 ± 0.2.

And the Onset (EAE [5])?
Its Onset is 12.

What about the “48 Hour DTH Response” value (DTH response; GP-BP/CFA immunized rats, ear test Day 12 (EAE onset)) of the same molecule?
The value was 35 ± 5.

What about the “48 Hour DTH Response” value (DTH response; Normal or saline/CFA rats, ear test Day 12) of the same molecule?
Its value is 5 ± 3.

What about the “net proliferation of reactive cells” value (LNC and T cell lines; GP-MBP-selected line from TCR peptide-treated rats) of the same molecule?
The value was 12,000 CPM.

And the “net proliferation of reactive cells” value (LNC and T cell lines; GP-MBP-selected line from untreated EAE-recovered rats)?
Its value is 84,000 CPM.

And the Proliferation (LNC and T cell lines; [12])?
The Proliferation was 50 ± 7 CPM/1000.

And the Proliferation (LNC and T cell lines; Treated rats, line BP/1st)?
Its Proliferation is 29 ± 6 CPM/1000.

And the Proliferation (LNC and T cell lines; Treated rats, line Vβ8/1st)?
The Proliferation was 6 ± 1 CPM/1000.

What about the Proliferation (LNC and T cell lines; [13]) of the same molecule?
The Proliferation was 49 ± 5 CPM/1000.

And the Proliferation (LNC and T cell lines; Untreated rats, line BP/1st)?
The Proliferation was 99 ± 9 CPM/1000.

What about the Proliferation (LNC and T cell lines; Untreated rats, line Vβ8/1st) of the same molecule?
The Proliferation was 23 ± 2 CPM/1000.

What about the Proliferation (LNC and T cell lines; Untreated rats, line Vβ14/1st) of the same molecule?
Its Proliferation is 11 ± 1 CPM/1000.

And the “Response CPM/1000 ± S.D.” value (clone C455-69; [7])?
The value was 203 ± 7 CPM/1000.

And the “Proliferation, C372-89” value [6, 14]?
The value was 40 ± 3 CPM/1000.

And the “Proliferation, C455-69” value [6, 14]?
Its value is 50 ± 9 CPM/1000.

And the “Proliferation, C372-89 + C455-69” value ([6]; coculture, 10,000 cells of each clone)?
Its value is 91 ± 12 CPM/1000.

B2: Rat BP: rat myelin basic protein (protein, UniProt P02688 2-195, looked up)
Myelin basic protein: ASQKRPSQRHGSKYLATASTMDHARHGFLPRHRDTGILDSIGRFFSGDRGAPKRGSGKVPWLKQSRSPLPSHARSRPGLCHMYKDSHTRTTHYGSLPQKSQRTQDENPVVHFFKNIVTPRTPPPSQGKGRGLSLSRFSWGAEGQKPGFGYGGRASDYKSAHKGFKGAYDAQGTLSKIFKLGGRDSRSGSPMARR
B2 was tested. Which “T Cell Proliferation” value [1, 8] did it give?
The value was 11 cpm × 10^-3.

What about the “T Cell Proliferation” value [1, 9] of the same molecule?
The value was 1 cpm × 10^-3.

What about the “T Cell Proliferation” value [1, 10] of the same molecule?
Its value is 9 cpm × 10^-3.

And the “T Cell Proliferation” value ([1]; GPBP-selected line)?
The value was 9 cpm × 10^-3.

What about the Proliferative response (peptide-selected T cells; day 13 inj. Control, selection with GPBP) of the same molecule?
Its Proliferative response is 46.

And the Proliferative response (peptide-selected T cells; day 13 inj. TCR Vβ 8(39-59) + CFA, selection with GPBP)?
The Proliferative response was 14.

And the Proliferative response (peptide-selected T cells; day 13 inj. TCR Vβ 8(39-59) + CFA, selection with Vβ 8(39-59))?
The Proliferative response was 4.

And the Proliferative response (peptide-selected T cells; day 13 inj. TCR Vβ 8(39-59) ID, selection with CPBP (so in the source))?
The Proliferative response was 36.

What about the Proliferation (LNC and T cell lines; [12]) of the same molecule?
Its Proliferation is 49 ± 2 CPM/1000.

And the Proliferation (LNC and T cell lines; Treated rats, line BP/1st)?
Its Proliferation is 14 ± 2 CPM/1000.

What about the Proliferation (LNC and T cell lines; Treated rats, line Vβ8/1st) of the same molecule?
The Proliferation was 4 ± 1 CPM/1000.

What about the Proliferation (LNC and T cell lines; [13]) of the same molecule?
The Proliferation was 40 ± 2 CPM/1000.

What about the Proliferation (LNC and T cell lines; Untreated rats, line BP/1st) of the same molecule?
Its Proliferation is 46 ± 3 CPM/1000.

And the Proliferation (LNC and T cell lines; Untreated rats, line Vβ8/1st)?
Its Proliferation is 11 ± 4 CPM/1000.

What about the “Response CPM/1000 ± S.D.” value (clone C455-69; [7]) of the same molecule?
Its value is 0.2 ± 0.1 CPM/1000.
